Data taken from patent US20150344570A1 (published 2015).

T1: FcγRIIb extracellular domain with C-terminal His tag (human, UniProt P31994 43-217)
T1 construct: extracellular domain; also called FcgRIIb; 2b; not shown: His tag at the C terminus
T1 sequence (looked up): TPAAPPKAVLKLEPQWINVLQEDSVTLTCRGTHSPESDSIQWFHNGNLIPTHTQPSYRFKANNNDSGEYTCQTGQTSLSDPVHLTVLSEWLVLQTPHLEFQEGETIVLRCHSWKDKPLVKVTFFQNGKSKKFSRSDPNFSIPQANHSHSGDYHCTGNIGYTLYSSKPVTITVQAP

B1: GpH7-B3 variant V266_06M/GpL16-k0 (antibody, human IgG1, kappa)
heavy: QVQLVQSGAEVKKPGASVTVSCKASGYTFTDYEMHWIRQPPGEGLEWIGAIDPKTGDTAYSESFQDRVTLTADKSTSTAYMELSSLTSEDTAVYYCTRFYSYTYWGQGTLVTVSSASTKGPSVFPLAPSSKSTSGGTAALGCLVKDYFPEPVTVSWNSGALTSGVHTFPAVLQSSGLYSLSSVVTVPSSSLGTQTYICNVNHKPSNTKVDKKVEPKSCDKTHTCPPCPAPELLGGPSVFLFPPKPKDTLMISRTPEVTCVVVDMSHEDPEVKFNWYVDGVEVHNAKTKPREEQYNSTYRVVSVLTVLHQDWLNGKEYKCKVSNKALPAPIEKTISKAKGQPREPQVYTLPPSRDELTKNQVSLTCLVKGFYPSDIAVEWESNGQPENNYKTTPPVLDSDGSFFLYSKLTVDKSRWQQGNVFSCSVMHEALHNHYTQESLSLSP
light: DIVMTQSPLSLPVTPGEPASISCQASESLVHSNRNTYLHWYLQKPGQSPQLLIYKVSNRFSGVPDRFSGSGSGTDFTLKISRVEAEDVGVYYCSQNTHVPPTFGQGTKVEIERTVAAPSVFIFPPSDEQLKSGTASVVCLLNNFYPREAKVQWKVDNALQSGNSQESVTEQDSKDSTYSLSSTLTLSKADYEKHKVYACEVTHQGLSSPVTKSFNRGEC
notes: also called Ho Ab V266_06M
B2: GpH7-A5/GpH7-B3 variant K326_07I/GpL16-k0 (antibody, human IgG1, kappa)
heavy 1: not shown
heavy 2: not shown
light: DIVMTQSPLSLPVTPGEPASISCQASESLVHSNRNTYLHWYLQKPGQSPQLLIYKVSNRFSGVPDRFSGSGSGTDFTLKISRVEAEDVGVYYCSQNTHVPPTFGQGTKVEIERTVAAPSVFIFPPSDEQLKSGTASVVCLLNNFYPREAKVQWKVDNALQSGNSQESVTEQDSKDSTYSLSSTLTLSKADYEKHKVYACEVTHQGLSSPVTKSFNRGEC
notes: also called He Ab K326_07I
B3: GpH7-A5/GpH7-B3 variant A327_10E/GpL16-k0 (antibody, human IgG1, kappa)
heavy 1: not shown
heavy 2: not shown
light: DIVMTQSPLSLPVTPGEPASISCQASESLVHSNRNTYLHWYLQKPGQSPQLLIYKVSNRFSGVPDRFSGSGSGTDFTLKISRVEAEDVGVYYCSQNTHVPPTFGQGTKVEIERTVAAPSVFIFPPSDEQLKSGTASVVCLLNNFYPREAKVQWKVDNALQSGNSQESVTEQDSKDSTYSLSSTLTLSKADYEKHKVYACEVTHQGLSSPVTKSFNRGEC
notes: also called He Ab A327_10E
B4: GpH7-A5/GpH7-B3 variant H268_13S/GpL16-k0 (antibody, human IgG1, kappa)
heavy 1: not shown
heavy 2: not shown
light: DIVMTQSPLSLPVTPGEPASISCQASESLVHSNRNTYLHWYLQKPGQSPQLLIYKVSNRFSGVPDRFSGSGSGTDFTLKISRVEAEDVGVYYCSQNTHVPPTFGQGTKVEIERTVAAPSVFIFPPSDEQLKSGTASVVCLLNNFYPREAKVQWKVDNALQSGNSQESVTEQDSKDSTYSLSSTLTLSKADYEKHKVYACEVTHQGLSSPVTKSFNRGEC
notes: also called He Ab H268_13S
B5: GpH7-A5/GpH7-B3 variant H268_01G/GpL16-k0 (antibody, human IgG1, kappa)
heavy 1: not shown
heavy 2: not shown
light: DIVMTQSPLSLPVTPGEPASISCQASESLVHSNRNTYLHWYLQKPGQSPQLLIYKVSNRFSGVPDRFSGSGSGTDFTLKISRVEAEDVGVYYCSQNTHVPPTFGQGTKVEIERTVAAPSVFIFPPSDEQLKSGTASVVCLLNNFYPREAKVQWKVDNALQSGNSQESVTEQDSKDSTYSLSSTLTLSKADYEKHKVYACEVTHQGLSSPVTKSFNRGEC
notes: also called He Ab H268_01G
B6: GpH7-A5/GpH7-B3 variant G237_20W/GpL16-k0 (antibody, human IgG1, kappa)
heavy 1: not shown
heavy 2: not shown
light: DIVMTQSPLSLPVTPGEPASISCQASESLVHSNRNTYLHWYLQKPGQSPQLLIYKVSNRFSGVPDRFSGSGSGTDFTLKISRVEAEDVGVYYCSQNTHVPPTFGQGTKVEIERTVAAPSVFIFPPSDEQLKSGTASVVCLLNNFYPREAKVQWKVDNALQSGNSQESVTEQDSKDSTYSLSSTLTLSKADYEKHKVYACEVTHQGLSSPVTKSFNRGEC
notes: also called He Ab G237_20W
B7: GpH7-A5/GpH7-B3 variant I332_04F/GpL16-k0 (antibody, human IgG1, kappa)
heavy 1: not shown
heavy 2: not shown
light: DIVMTQSPLSLPVTPGEPASISCQASESLVHSNRNTYLHWYLQKPGQSPQLLIYKVSNRFSGVPDRFSGSGSGTDFTLKISRVEAEDVGVYYCSQNTHVPPTFGQGTKVEIERTVAAPSVFIFPPSDEQLKSGTASVVCLLNNFYPREAKVQWKVDNALQSGNSQESVTEQDSKDSTYSLSSTLTLSKADYEKHKVYACEVTHQGLSSPVTKSFNRGEC
notes: also called He Ab I332_04F
B8: GpH7-B3 variant Y296_20W/GpL16-k0 (antibody, human IgG1, kappa)
heavy: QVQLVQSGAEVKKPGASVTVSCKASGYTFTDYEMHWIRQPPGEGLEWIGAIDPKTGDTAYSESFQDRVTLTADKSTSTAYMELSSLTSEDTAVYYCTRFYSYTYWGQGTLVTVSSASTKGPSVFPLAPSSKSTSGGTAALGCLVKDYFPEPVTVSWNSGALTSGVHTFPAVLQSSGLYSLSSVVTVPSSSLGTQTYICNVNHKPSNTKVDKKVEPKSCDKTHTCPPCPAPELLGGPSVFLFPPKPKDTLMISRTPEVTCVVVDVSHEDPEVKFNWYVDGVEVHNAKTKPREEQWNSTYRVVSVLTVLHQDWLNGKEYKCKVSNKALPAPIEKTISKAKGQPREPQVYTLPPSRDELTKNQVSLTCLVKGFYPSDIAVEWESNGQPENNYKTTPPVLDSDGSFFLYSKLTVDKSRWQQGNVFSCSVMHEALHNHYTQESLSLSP
light: DIVMTQSPLSLPVTPGEPASISCQASESLVHSNRNTYLHWYLQKPGQSPQLLIYKVSNRFSGVPDRFSGSGSGTDFTLKISRVEAEDVGVYYCSQNTHVPPTFGQGTKVEIERTVAAPSVFIFPPSDEQLKSGTASVVCLLNNFYPREAKVQWKVDNALQSGNSQESVTEQDSKDSTYSLSSTLTLSKADYEKHKVYACEVTHQGLSSPVTKSFNRGEC
notes: also called Ho Ab Y296_20W
B9: GpH7-A5/GpH7-B3 variant G237_04F/GpL16-k0 (antibody, human IgG1, kappa)
heavy 1: not shown
heavy 2: not shown
light: DIVMTQSPLSLPVTPGEPASISCQASESLVHSNRNTYLHWYLQKPGQSPQLLIYKVSNRFSGVPDRFSGSGSGTDFTLKISRVEAEDVGVYYCSQNTHVPPTFGQGTKVEIERTVAAPSVFIFPPSDEQLKSGTASVVCLLNNFYPREAKVQWKVDNALQSGNSQESVTEQDSKDSTYSLSSTLTLSKADYEKHKVYACEVTHQGLSSPVTKSFNRGEC
notes: also called He Ab G237_04F
B10: GpH7-A5/GpH7-B3 variant I332_09D/GpL16-k0 (antibody, human IgG1, kappa)
heavy 1: not shown
heavy 2: not shown
light: DIVMTQSPLSLPVTPGEPASISCQASESLVHSNRNTYLHWYLQKPGQSPQLLIYKVSNRFSGVPDRFSGSGSGTDFTLKISRVEAEDVGVYYCSQNTHVPPTFGQGTKVEIERTVAAPSVFIFPPSDEQLKSGTASVVCLLNNFYPREAKVQWKVDNALQSGNSQESVTEQDSKDSTYSLSSTLTLSKADYEKHKVYACEVTHQGLSSPVTKSFNRGEC
notes: also called He Ab I332_09D
B11: GpH7-A5/GpH7-B3 variant I332_14T/GpL16-k0 (antibody, human IgG1, kappa)
heavy 1: not shown
heavy 2: not shown
light: DIVMTQSPLSLPVTPGEPASISCQASESLVHSNRNTYLHWYLQKPGQSPQLLIYKVSNRFSGVPDRFSGSGSGTDFTLKISRVEAEDVGVYYCSQNTHVPPTFGQGTKVEIERTVAAPSVFIFPPSDEQLKSGTASVVCLLNNFYPREAKVQWKVDNALQSGNSQESVTEQDSKDSTYSLSSTLTLSKADYEKHKVYACEVTHQGLSSPVTKSFNRGEC
notes: also called He Ab I332_14T
B12: GpH7-A5/GpH7-B3 variant G236_09D/GpL16-k0 (antibody, human IgG1, kappa)
heavy 1: not shown
heavy 2: not shown
light: DIVMTQSPLSLPVTPGEPASISCQASESLVHSNRNTYLHWYLQKPGQSPQLLIYKVSNRFSGVPDRFSGSGSGTDFTLKISRVEAEDVGVYYCSQNTHVPPTFGQGTKVEIERTVAAPSVFIFPPSDEQLKSGTASVVCLLNNFYPREAKVQWKVDNALQSGNSQESVTEQDSKDSTYSLSSTLTLSKADYEKHKVYACEVTHQGLSSPVTKSFNRGEC
notes: also called He Ab G236_09D
B13: GpH7-A5/GpH7-B3 variant A327_09D/GpL16-k0 (antibody, human IgG1, kappa)
heavy 1: not shown
heavy 2: not shown
light: DIVMTQSPLSLPVTPGEPASISCQASESLVHSNRNTYLHWYLQKPGQSPQLLIYKVSNRFSGVPDRFSGSGSGTDFTLKISRVEAEDVGVYYCSQNTHVPPTFGQGTKVEIERTVAAPSVFIFPPSDEQLKSGTASVVCLLNNFYPREAKVQWKVDNALQSGNSQESVTEQDSKDSTYSLSSTLTLSKADYEKHKVYACEVTHQGLSSPVTKSFNRGEC
notes: also called He Ab A327_09D
B14: GpH7-A5/GpH7-B3 variant A330_01G/GpL16-k0 (antibody, human IgG1, kappa)
heavy 1: not shown
heavy 2: not shown
light: DIVMTQSPLSLPVTPGEPASISCQASESLVHSNRNTYLHWYLQKPGQSPQLLIYKVSNRFSGVPDRFSGSGSGTDFTLKISRVEAEDVGVYYCSQNTHVPPTFGQGTKVEIERTVAAPSVFIFPPSDEQLKSGTASVVCLLNNFYPREAKVQWKVDNALQSGNSQESVTEQDSKDSTYSLSSTLTLSKADYEKHKVYACEVTHQGLSSPVTKSFNRGEC
notes: also called He Ab A330_01G
B15: GpH7-A5/GpH7-B3 variant I332_06M/GpL16-k0 (antibody, human IgG1, kappa)
heavy 1: not shown
heavy 2: not shown
light: DIVMTQSPLSLPVTPGEPASISCQASESLVHSNRNTYLHWYLQKPGQSPQLLIYKVSNRFSGVPDRFSGSGSGTDFTLKISRVEAEDVGVYYCSQNTHVPPTFGQGTKVEIERTVAAPSVFIFPPSDEQLKSGTASVVCLLNNFYPREAKVQWKVDNALQSGNSQESVTEQDSKDSTYSLSSTLTLSKADYEKHKVYACEVTHQGLSSPVTKSFNRGEC
notes: also called He Ab I332_06M
B16: GpH7-A5/GpH7-B3 variant I332_10E/GpL16-k0 (antibody, human IgG1, kappa)
heavy 1: not shown
heavy 2: not shown
light: DIVMTQSPLSLPVTPGEPASISCQASESLVHSNRNTYLHWYLQKPGQSPQLLIYKVSNRFSGVPDRFSGSGSGTDFTLKISRVEAEDVGVYYCSQNTHVPPTFGQGTKVEIERTVAAPSVFIFPPSDEQLKSGTASVVCLLNNFYPREAKVQWKVDNALQSGNSQESVTEQDSKDSTYSLSSTLTLSKADYEKHKVYACEVTHQGLSSPVTKSFNRGEC
notes: also called He Ab I332_10E
B17: GpH7-A5/GpH7-B3 variant G236_10E/GpL16-k0 (antibody, human IgG1, kappa)
heavy 1: not shown
heavy 2: not shown
light: DIVMTQSPLSLPVTPGEPASISCQASESLVHSNRNTYLHWYLQKPGQSPQLLIYKVSNRFSGVPDRFSGSGSGTDFTLKISRVEAEDVGVYYCSQNTHVPPTFGQGTKVEIERTVAAPSVFIFPPSDEQLKSGTASVVCLLNNFYPREAKVQWKVDNALQSGNSQESVTEQDSKDSTYSLSSTLTLSKADYEKHKVYACEVTHQGLSSPVTKSFNRGEC
notes: also called He Ab G236_10E
B18: GpH7-A5/GpH7-B3 variant H268_18N/GpL16-k0 (antibody, human IgG1, kappa)
heavy 1: not shown
heavy 2: not shown
light: DIVMTQSPLSLPVTPGEPASISCQASESLVHSNRNTYLHWYLQKPGQSPQLLIYKVSNRFSGVPDRFSGSGSGTDFTLKISRVEAEDVGVYYCSQNTHVPPTFGQGTKVEIERTVAAPSVFIFPPSDEQLKSGTASVVCLLNNFYPREAKVQWKVDNALQSGNSQESVTEQDSKDSTYSLSSTLTLSKADYEKHKVYACEVTHQGLSSPVTKSFNRGEC
notes: also called He Ab H268_18N
B19: GpH7-A5/GpH7-B3 variant H268_09D/GpL16-k0 (antibody, human IgG1, kappa)
heavy 1: not shown
heavy 2: not shown
light: DIVMTQSPLSLPVTPGEPASISCQASESLVHSNRNTYLHWYLQKPGQSPQLLIYKVSNRFSGVPDRFSGSGSGTDFTLKISRVEAEDVGVYYCSQNTHVPPTFGQGTKVEIERTVAAPSVFIFPPSDEQLKSGTASVVCLLNNFYPREAKVQWKVDNALQSGNSQESVTEQDSKDSTYSLSSTLTLSKADYEKHKVYACEVTHQGLSSPVTKSFNRGEC
notes: also called He Ab H268_09D
B20: GpH7-A5/GpH7-B3 variant H268_10E/GpL16-k0 (antibody, human IgG1, kappa)
heavy 1: not shown
heavy 2: not shown
light: DIVMTQSPLSLPVTPGEPASISCQASESLVHSNRNTYLHWYLQKPGQSPQLLIYKVSNRFSGVPDRFSGSGSGTDFTLKISRVEAEDVGVYYCSQNTHVPPTFGQGTKVEIERTVAAPSVFIFPPSDEQLKSGTASVVCLLNNFYPREAKVQWKVDNALQSGNSQESVTEQDSKDSTYSLSSTLTLSKADYEKHKVYACEVTHQGLSSPVTKSFNRGEC
notes: also called He Ab H268_10E

Legend:
[1] = target: T1, FcγRIIb extracellular domain with …; test: SPR, relative binding, HoCon Ab = 100
Description: (§1) Analysis of interaction between objective antibody and the FcγR was carried out using Biacore T100 (GE Healthcare). HBS-EP+ (GE Healthcare) was used as the running buffer, and the measurement temperature was set to 25° C. Chips produced by immobilizing the antigen peptide by the amine coupling method to a Series S Sencor Chip CM5 (GE Healthcare), or alternatively, chips produced by allowing preliminarily biotinylated antigen peptides to interact with and immobilize onto a Series S Sensor Chip SA (certified) (GE Healthcare) were used. Antibodies of interest were captured onto an antigen peptide-immobilized chip, and allowed to interact to each FcγR diluted with running buffer. To regenerate and repeatedly use the chip, the antibodies captured on the chip were washed off by reacting 10 mM glycine-HCl, pH 1.5.

[2] = target: T1, FcγRIIb extracellular domain with …; test: SPR, relative binding, HeCon Ab = 100
Description: as §1

| Binder | Ho/Con_2b [1] | He/Con_2b [2] |
| --- | --- | --- |
| B1 | 231 % of control | – |
| B2 | – | 199 % of control |
| B3 | – | 140 % of control |
| B4 | – | 160 % of control |
| B5 | – | 144 % of control |
| B6 | – | 193 % of control |
| B7 | – | 104 % of control |
| B8 | 103 % of control | – |
| B9 | – | 149 % of control |
| B10 | – | 147 % of control |
| B11 | – | 106 % of control |
| B12 | – | 167 % of control |
| B13 | – | 172 % of control |
| B14 | – | 104 % of control |
| B15 | – | 105 % of control |
| B16 | – | 142 % of control |
| B17 | – | 110 % of control |
| B18 | – | 156 % of control |
| B19 | – | 239 % of control |
| B20 | – | 230 % of control |
